The supplement of paper PMC11246515
± gives the standard deviation of the averaged measurements.

Experiment: total protein half-life in vivo (active degradation + dilution); higher = more stable protein
[1] = E. coli NCM3722 delta-clpP delta-lon delta-hslV, growth: N-lim chemostat, doubling time 6 h
[2] = E. coli NCM3722 delta-clpP, growth: N-lim chemostat, doubling time 6 h
[3] = E. coli NCM3722 delta-hslV, growth: N-lim chemostat, doubling time 6 h
[4] = E. coli NCM3722 delta-lon, growth: N-lim chemostat, doubling time 6 h
[5] = E. coli NCM3722 delta-smpB, growth: N-lim chemostat, doubling time 6 h
[6] = wild type E. coli NCM3722, growth: C-lim chemostat, doubling time 3 h
[7] = wild type E. coli NCM3722, growth: C-lim chemostat, doubling time 6 h
[8] = wild type E. coli NCM3722, growth: C-lim chemostat, doubling time 12 h
[9] = wild type E. coli NCM3722, growth: N-lim chemostat, doubling time 6 h
[10] = wild type E. coli NCM3722, growth: N-lim chemostat, doubling time 12 h
[11] = wild type E. coli NCM3722, growth: P-lim chemostat, doubling time 6 h
[12] = wild type E. coli NCM3722, growth: P-lim chemostat, doubling time 12 h

## MKPSVILYKALPDDLLQRLQEHFTVHQVANLSPQTVEQNAAIFAEAEGLLGSNENVNAALLEKMPKLRATSTISVGYDNFDVDALTARKILLMHTPTVLTETVADTLMALVLSTARRVVEVAERVKAGEWTASIGPDWYGTDVHHKTLGIVGMGRIGMALAQRAHFGFNMPILYNARRHHKEAEERFNARYCDLDTLLQESDFVCLILPLTDETHHLFGAEQFAKMKSSAIFINAGRGPVVDENALIAALQKGEIHAAGLDVFEQEPLSVDSPLLSMANVVAVPHIGSATHETRYGMAACAVDNLIDALQGKVEKNCVNPHVAD
[1]
  total protein half-life in vivo: 4.9 ± 1.3 h
[2]
  total protein half-life in vivo: 4.12 ± 0.17 h
[3]
  total protein half-life in vivo: 3.82 ± 0.29 h
[4]
  total protein half-life in vivo: 5.02 ± 0.68 h
[5]
  total protein half-life in vivo: 3.89 ± 0.12 h
[6]
  total protein half-life in vivo: 2.95 ± 0.11 h
[7]
  total protein half-life in vivo: 5.5 ± 0.48 h
[8]
  total protein half-life in vivo: 8.92 ± 0.31 h
[9]
  total protein half-life in vivo: 4.03 ± 0.16 h
[10]
  total protein half-life in vivo: 6.22 ± 0.18 h
[11]
  total protein half-life in vivo: 5.53 ± 0.1 h
[12]
  total protein half-life in vivo: 11.1 ± 0.45 h

## MKPTTISLLQKYKQEKKRFATITAYDYSFAKLFADEGLNVMLVGDSLGMTVQGHDSTLPVTVADIAYHTAAVRRGAPNCLLLADLPFMAYATPEQAFENAATVMRAGANMVKIEGGEWLVETVQMLTERAVPVCGHLGLTPQSVNIFGGYKVQGRGDEAGDQLLSDALALEAAGAQLLVLECVPVELAKRITEALAIPVIGIGAGNVTDGQILVMHDAFGITGGHIPKFAKNFLAETGDIRAAVRQYMAEVESGVYPGEEHSFH
[1]
  total protein half-life in vivo: 6.05 ± 0.05 h
[2]
  total protein half-life in vivo: 5.86 ± 0.2 h
[3]
  total protein half-life in vivo: 6.34 ± 0.95 h
[4]
  total protein half-life in vivo: 6.74 ± 0.46 h
[5]
  total protein half-life in vivo: 6.04 ± 0.64 h
[6]
  total protein half-life in vivo: 2.96 ± 0.031 h
[7]
  total protein half-life in vivo: 6.93 ± 0.31 h
[8]
  total protein half-life in vivo: 12.5 ± 2.7 h
[9]
  total protein half-life in vivo: 5.51 ± 0.51 h
[10]
  total protein half-life in vivo: 12.3 ± 2.8 h
[11]
  total protein half-life in vivo: 6.42 ± 1.1 h

## MKQGLQLRLSQQLAMTPQLQQAIRLLQLSTLELQQELQQALESNPLLEQIDTHEEIDTRETQDSETLDTADALEQKEMPEELPLDASWDTIYTAGTPSGTSGDYIDDELPVYQGETTQTLQDYLMWQVELTPFSDTDRAIATSIVDAVDETGYLTVPLEDILESIGDEEIDIDEVEAVLKRIQRFDPVGVAAKDLRDCLLIQLSQFDKTTPWLEEARLIISDHLDLLANHDFRTLMRVTRLKEDVLKEAVNLIQSLDPRPGQSIQTGEPEYVIPDVLVRKHNGHWTVELNSDSIPRLQINQHYASMCNNARNDGDSQFIRSNLQDAKWLIKSLESRNDTLLRVSRCIVEQQQAFFEQGEEYMKPMVLADIAQAVEMHESTISRVTTQKYLHSPRGIFELKYFFSSHVNTEGGGEASSTAIRALVKKLIAAENPAKPLSDSKLTSLLSEQGIMVARRTVAKYRESLSIPPSNQRKQLV
[1]
  total protein half-life in vivo: 5.34 ± 0.089 h
[2]
  total protein half-life in vivo: 4.45 ± 0.42 h
[3]
  total protein half-life in vivo: 3.48 ± 0.12 h
[4]
  total protein half-life in vivo: 4.78 ± 0.64 h
[5]
  total protein half-life in vivo: 3.657 ± 0.022 h
[6]
  total protein half-life in vivo: 2.57 ± 0.1 h
[7]
  total protein half-life in vivo: 4.75 ± 0.098 h
[8]
  total protein half-life in vivo: 7.27 ± 1.6 h
[9]
  total protein half-life in vivo: 3.94 ± 0.43 h
[10]
  total protein half-life in vivo: 5.68 ± 0.088 h
[11]
  total protein half-life in vivo: 3.61 ± 0.56 h
[12]
  total protein half-life in vivo: 6.22 ± 0.58 h

## MKQHQSADNSQGQLYIVPTPIGNLADITQRALEVLQAVDLIAAEDTRHTGLLLQHFGINARLFALHDHNEQQKAETLLAKLQEGQNIALVSDAGTPLINDPGYHLVRTCREAGIRVVPLPGPCAAITALSAAGLPSDRFCYEGFLPAKSKGRRDALKAIEAEPRTLIFYESTHRLLDSLEDIVAVLGESRYVVLARELTKTWETIHGAPVGELLAWVKEDENRRKGEMVLIVEGHKAQEEDLPADALRTLALLQAELPLKKAAALAAEIHGVKKNALYKYALEQQG
[1]
  total protein half-life in vivo: 6.24 ± 1.1 h
[2]
  total protein half-life in vivo: 5.77 ± 0.73 h
[3]
  total protein half-life in vivo: 5.85 ± 0.46 h
[4]
  total protein half-life in vivo: 5.1 ± 0.5 h
[5]
  total protein half-life in vivo: 5.25 ± 0.13 h
[6]
  total protein half-life in vivo: 3.41 ± 0.11 h
[8]
  total protein half-life in vivo: 11.8 ± 2.3 h
[9]
  total protein half-life in vivo: 5.57 ± 0.17 h
[10]
  total protein half-life in vivo: 10.5 ± 0.56 h
[11]
  total protein half-life in vivo: 5.46 ± 0.11 h
[12]
  total protein half-life in vivo: 12.4 ± 0.41 h

## MKQQIQLRRREVDETADLPAELPPLLRRLYASRGVRSAQELERSVKGMLPWQQLSGVEKAVEILYNAFREGTRIIVVGDFDADGATSTALSVLAMRSLGCSNIDYLVPNRFEDGYGLSPEVVDQAHARGAQLIVTVDNGISSHAGVEHARSLGIPVIVTDHHLPGDTLPAAEAIINPNLRDCNFPSKSLAGVGVAFYLMLALRTFLRDQGWFDERNIAIPNLAELLDLVALGTVADVVPLDANNRILTWQGMSRIRAGKCRPGIKALLEVANRDAQKLAASDLGFALGPRLNAAGRLDDMSVGVALLLCDNIGEARVLANELDALNQTRKEIEQGMQIEALTLCEKLERSRDTLPGGLAMYHPEWHQGVVGILASRIKERFHRPVIAFAPAGDGTLKGSGRSIQGLHMRDALERLDTLYPGMMLKFGGHAMAAGLSLEEDKFKLFQQRFGELVTEWLDPSLLQGEVVSDGPLSPAEMTMEVAQLLRDAGPWGQMFPEPLFDGHFRLLQQRLVGERHLKVMVEPVGGGPLLDGIAFNVDTALWPDNGVREVQLAYKLDINEFRGNRSLQIIIDNIWPI
[1]
  total protein half-life in vivo: 4.22 ± 0.25 h
[2]
  total protein half-life in vivo: 3.87 ± 1.1 h
[3]
  total protein half-life in vivo: 2.23 ± 0.075 h
[4]
  total protein half-life in vivo: 2.74 ± 0.093 h
[5]
  total protein half-life in vivo: 2.07 ± 0.028 h
[6]
  total protein half-life in vivo: 2.11 ± 0.042 h
[7]
  total protein half-life in vivo: 3.66 ± 0.65 h
[8]
  total protein half-life in vivo: 4.42 ± 0.24 h
[9]
  total protein half-life in vivo: 2.25 ± 0.044 h
[10]
  total protein half-life in vivo: 3.5 ± 0.59 h
[11]
  total protein half-life in vivo: 2.33 ± 0.37 h
[12]
  total protein half-life in vivo: 3.89 ± 0.38 h

## MKQYLIAPSILSADFARLGEDTAKALAAGADVVHFDVMDNHYVPNLTIGPMVLKSLRNYGITAPIDVHLMVKPVDRIVPDFAAAGASIITFHPEASEHVDRTLQLIKENGCKAGLVFNPATPLSYLDYVMDKLDVILLMSVNPGFGGQSFIPQTLDKLREVRRRIDESGFDIRLEVDGGVKVNNIGEIAAAGADMFVAGSAIFDQPDYKKVIDEMRSELAKVSHE [P0AG07]
[1]
  total protein half-life in vivo: 5.23 ± 0.28 h
[2]
  total protein half-life in vivo: 4.58 ± 0.58 h
[3]
  total protein half-life in vivo: 5.6 ± 1.7 h
[4]
  total protein half-life in vivo: 4.69 ± 0.12 h
[5]
  total protein half-life in vivo: 4.27 ± 0.7 h
[6]
  total protein half-life in vivo: 3.2 ± 0.21 h
[7]
  total protein half-life in vivo: 5.43 ± 0.99 h
[8]
  total protein half-life in vivo: 11.4 ± 0.82 h
[9]
  total protein half-life in vivo: 4.84 ± 0.16 h
[10]
  total protein half-life in vivo: 7.52 ± 0.15 h
[11]
  total protein half-life in vivo: 5.72 ± 0.56 h
[12]
  total protein half-life in vivo: 12 ± 0.16 h
